The values that follow are results of earlier work, collected in paper PMC9255719.

Usually Kd stands for the equilibrium constant for the complex coming apart.

In series [1] the target is Albumin-CF-594 maleimide conjugate (dye:albumin 1:3) (UniProt P02770). Nature of the series: not stated in this review (data reproduced from ref [155]). Conditions: pH 6; not stated (pH 6 and pH 7.4).
In series [2] the target is Albumin-Texas Red-X conjugate (1:1) (UniProt P02770). The series is described as above. Conditions: pH 6; not stated (pH 6 and pH 7.4).
For series [3], the target named is Albumin-Texas Red-X conjugate (5:1) (UniProt P02770). The series is described as above. Conditions: pH 6; not stated (pH 6 and pH 7.4).
Series [4] addresses Albumin-fluorescein conjugate (6.4:1) (UniProt P02770). The description is as above. The following applies: not stated (pH 6 and pH 7.4).
Series [5] concerns the target Albumin-Texas Red-X conjugate (4:1) (UniProt P02770). The description is as above. Conditions: pH 6; not stated (pH 6 and pH 7.4).
Series [6] has as its target Albumin-Alexa 647 maleimide conjugate (1:1) (UniProt P02770). Described as above. The following applies: pH 6; not stated (pH 6 and pH 7.4).
For series [7], the target named is Albumin-Alexa 568 conjugate (4:1) (UniProt P02770). Described as above. Conditions: pH 6; not stated (pH 6 and pH 7.4).
Series [8] deals with Albumin-Texas Red-X conjugate (2:1) (UniProt P02770). The series is described as above. The following applies: pH 6; not stated (pH 6 and pH 7.4).
Series [9] deals with Serum albumin, unlabelled ('No dye') (UniProt P02770). The series is described as above. Conditions: not stated (pH 6 and pH 7.4).
The target of series [10] is Albumin-Texas Red conjugate (1:1) (UniProt P02770). Described as above. Conditions: not stated (pH 6 and pH 7.4).
For series [11], the target named is cubilin (UniProt O60494).
The target of series [12] is FcRn (Rattus norvegicus) (UniProt P13599).
Series [13] has the same target. This is another data set of the same source.
Series [14] shares this target. The source holds these as a separate data set.
The target is the same in series [15]. The source holds these as a separate data set.
Series [16] has the same target. This is another data set of the same source.
Series [17] has the same target. This is another data set of the same source.
Series [18] has the same target. The source holds these as a separate data set.
Series [19] has the same target. The source holds these as a separate data set.
Series [20] shares this target. The source holds these as a separate data set.
Series [21] shares this target. The source holds these as a separate data set.
The target in series [22] is FcRn (Homo sapiens) (UniProt P55899).
Series [23] deals with FcRn (Rattus norvegicus) (UniProt P13599). This is another data set of the same source.
In series [24] the target is FcRn (Homo sapiens) (UniProt P55899). The source holds these as a separate data set.
Series [25] concerns the target FcRn (Rattus norvegicus) (UniProt P13599). The source holds these as a separate data set.
Series [26] has the same target. The source holds these as a separate data set.
The target is the same in series [27]. This is another data set of the same source.

“And” between values parts separate entries of the source, which are not always exact repeats. Equal entries are not always repeated. Where two headings read alike, the source gives them in different places. Bounds are passed on as bounds.

Chain of UniProt P13599 (P13599 23-298): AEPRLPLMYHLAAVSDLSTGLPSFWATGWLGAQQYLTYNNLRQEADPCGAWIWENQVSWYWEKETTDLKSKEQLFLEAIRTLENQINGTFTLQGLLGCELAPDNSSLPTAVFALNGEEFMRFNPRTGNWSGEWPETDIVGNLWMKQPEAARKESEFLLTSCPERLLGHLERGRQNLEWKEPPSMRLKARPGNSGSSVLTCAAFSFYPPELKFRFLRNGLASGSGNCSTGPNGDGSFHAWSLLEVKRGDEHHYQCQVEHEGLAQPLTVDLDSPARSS
Chain of UniProt P55899 (P55899 24-297): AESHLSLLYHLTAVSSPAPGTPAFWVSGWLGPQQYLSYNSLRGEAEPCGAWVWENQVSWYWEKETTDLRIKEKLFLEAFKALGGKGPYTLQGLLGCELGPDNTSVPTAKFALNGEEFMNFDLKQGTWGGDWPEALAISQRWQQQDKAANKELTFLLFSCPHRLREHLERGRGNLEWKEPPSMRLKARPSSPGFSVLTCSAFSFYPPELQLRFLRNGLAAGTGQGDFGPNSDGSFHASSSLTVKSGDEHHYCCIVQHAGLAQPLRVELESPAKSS
Chain of UniProt O60494 (O60494 36-3623): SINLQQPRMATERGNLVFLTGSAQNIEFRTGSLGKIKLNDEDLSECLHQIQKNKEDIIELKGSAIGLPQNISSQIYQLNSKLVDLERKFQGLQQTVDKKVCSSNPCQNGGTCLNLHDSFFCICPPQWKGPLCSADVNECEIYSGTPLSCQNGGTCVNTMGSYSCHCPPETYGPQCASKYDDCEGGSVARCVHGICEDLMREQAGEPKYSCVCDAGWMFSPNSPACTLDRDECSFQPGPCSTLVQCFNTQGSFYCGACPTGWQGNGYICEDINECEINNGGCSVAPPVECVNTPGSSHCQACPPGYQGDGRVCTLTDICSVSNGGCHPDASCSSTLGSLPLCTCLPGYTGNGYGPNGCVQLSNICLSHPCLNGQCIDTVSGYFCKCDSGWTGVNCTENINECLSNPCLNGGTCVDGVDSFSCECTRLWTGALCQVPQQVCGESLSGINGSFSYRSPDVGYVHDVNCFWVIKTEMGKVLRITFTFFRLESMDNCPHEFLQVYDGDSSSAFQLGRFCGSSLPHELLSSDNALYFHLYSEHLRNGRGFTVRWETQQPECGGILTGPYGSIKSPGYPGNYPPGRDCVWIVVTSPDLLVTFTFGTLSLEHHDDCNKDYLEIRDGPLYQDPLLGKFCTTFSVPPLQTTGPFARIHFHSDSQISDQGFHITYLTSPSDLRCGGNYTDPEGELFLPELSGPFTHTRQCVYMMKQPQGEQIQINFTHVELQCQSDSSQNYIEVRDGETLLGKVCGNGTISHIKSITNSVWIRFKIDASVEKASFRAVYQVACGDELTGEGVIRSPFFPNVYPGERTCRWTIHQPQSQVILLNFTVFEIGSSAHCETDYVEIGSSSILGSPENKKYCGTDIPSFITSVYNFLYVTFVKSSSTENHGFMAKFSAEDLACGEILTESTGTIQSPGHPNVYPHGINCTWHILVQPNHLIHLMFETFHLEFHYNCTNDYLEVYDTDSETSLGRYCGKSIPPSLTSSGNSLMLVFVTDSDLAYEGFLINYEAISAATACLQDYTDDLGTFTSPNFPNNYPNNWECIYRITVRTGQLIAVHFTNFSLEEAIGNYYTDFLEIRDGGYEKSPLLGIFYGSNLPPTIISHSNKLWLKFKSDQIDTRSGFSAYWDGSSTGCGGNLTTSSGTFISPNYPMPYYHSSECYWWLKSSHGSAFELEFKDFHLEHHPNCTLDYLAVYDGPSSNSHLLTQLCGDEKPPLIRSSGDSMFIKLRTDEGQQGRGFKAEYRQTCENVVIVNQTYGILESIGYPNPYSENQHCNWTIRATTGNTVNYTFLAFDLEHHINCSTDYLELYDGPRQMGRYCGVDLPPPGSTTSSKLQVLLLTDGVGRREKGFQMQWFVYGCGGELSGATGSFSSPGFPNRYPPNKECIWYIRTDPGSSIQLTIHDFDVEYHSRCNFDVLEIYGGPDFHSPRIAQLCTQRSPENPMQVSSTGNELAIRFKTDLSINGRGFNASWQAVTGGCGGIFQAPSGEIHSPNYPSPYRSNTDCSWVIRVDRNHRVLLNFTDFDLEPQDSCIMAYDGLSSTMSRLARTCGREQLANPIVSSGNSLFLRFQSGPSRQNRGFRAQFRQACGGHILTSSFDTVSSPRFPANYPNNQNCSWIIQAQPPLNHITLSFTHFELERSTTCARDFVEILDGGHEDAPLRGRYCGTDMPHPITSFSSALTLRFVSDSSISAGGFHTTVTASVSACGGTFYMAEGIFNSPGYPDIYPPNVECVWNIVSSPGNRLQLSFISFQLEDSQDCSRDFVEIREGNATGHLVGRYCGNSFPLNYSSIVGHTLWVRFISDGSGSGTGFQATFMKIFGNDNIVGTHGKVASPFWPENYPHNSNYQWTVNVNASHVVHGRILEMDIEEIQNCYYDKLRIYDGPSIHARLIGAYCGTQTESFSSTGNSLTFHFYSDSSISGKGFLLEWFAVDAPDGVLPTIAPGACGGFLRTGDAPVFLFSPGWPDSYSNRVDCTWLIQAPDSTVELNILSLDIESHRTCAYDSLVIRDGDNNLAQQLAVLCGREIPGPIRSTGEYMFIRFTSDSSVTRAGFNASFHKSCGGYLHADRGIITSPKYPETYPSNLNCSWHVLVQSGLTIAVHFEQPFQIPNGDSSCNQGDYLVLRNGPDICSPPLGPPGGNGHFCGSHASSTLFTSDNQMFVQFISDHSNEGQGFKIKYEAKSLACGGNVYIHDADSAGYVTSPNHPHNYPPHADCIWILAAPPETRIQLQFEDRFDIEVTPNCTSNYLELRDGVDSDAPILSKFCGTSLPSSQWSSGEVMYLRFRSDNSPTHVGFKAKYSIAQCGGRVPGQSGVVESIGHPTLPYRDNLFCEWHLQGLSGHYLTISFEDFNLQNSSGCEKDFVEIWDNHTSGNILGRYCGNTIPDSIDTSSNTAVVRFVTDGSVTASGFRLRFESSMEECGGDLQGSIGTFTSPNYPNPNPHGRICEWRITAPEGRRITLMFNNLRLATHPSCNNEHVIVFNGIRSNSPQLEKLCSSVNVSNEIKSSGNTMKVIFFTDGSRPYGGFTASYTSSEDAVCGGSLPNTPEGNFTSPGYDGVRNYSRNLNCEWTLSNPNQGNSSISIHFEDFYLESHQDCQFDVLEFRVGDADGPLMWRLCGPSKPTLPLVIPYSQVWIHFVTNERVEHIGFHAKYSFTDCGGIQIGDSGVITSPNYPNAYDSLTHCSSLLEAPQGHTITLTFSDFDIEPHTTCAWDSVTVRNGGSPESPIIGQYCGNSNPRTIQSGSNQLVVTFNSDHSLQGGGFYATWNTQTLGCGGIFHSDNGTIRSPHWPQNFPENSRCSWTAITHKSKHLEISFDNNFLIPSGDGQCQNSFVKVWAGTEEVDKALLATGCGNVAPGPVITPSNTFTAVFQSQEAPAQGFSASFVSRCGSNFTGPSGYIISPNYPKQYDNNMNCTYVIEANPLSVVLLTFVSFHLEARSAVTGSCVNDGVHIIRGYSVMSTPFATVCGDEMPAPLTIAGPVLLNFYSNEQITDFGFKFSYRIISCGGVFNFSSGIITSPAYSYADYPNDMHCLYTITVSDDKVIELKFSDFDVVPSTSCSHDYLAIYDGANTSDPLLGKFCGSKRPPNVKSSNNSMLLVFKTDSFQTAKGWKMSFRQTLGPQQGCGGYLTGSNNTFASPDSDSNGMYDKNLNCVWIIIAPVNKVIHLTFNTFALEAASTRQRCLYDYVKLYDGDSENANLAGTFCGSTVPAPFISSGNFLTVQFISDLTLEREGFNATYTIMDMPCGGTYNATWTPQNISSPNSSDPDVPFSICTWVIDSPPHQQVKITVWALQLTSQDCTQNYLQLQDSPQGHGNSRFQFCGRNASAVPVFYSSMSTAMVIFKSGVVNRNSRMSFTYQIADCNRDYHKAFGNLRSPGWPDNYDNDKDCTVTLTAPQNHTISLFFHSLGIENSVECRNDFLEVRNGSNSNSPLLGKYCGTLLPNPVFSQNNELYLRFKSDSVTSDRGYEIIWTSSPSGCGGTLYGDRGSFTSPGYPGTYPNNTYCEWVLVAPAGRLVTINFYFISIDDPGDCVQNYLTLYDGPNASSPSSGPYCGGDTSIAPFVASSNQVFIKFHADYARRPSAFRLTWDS

“Neonatal Fc receptor (FcRn), rat (rFcRn)”: the Kd in [1] is 1.5 µM; in [2] it was 5.4 µM; in [3] it was greater than 100 µM; in series [4] (pH 6), 69 µM; in [4] (pH 7.4) it was 1 µM; in [5], greater than 40 µM. Also, the Kd in series [6] is 11 µM; in series [7], 17 µM; in series [8], 10 µM; in series [9] (pH 6) it was 11.6 µM; in series [9] (pH 7.4) it was greater than 100 µM; in series [10] (pH 6) it was 6 µM. In addition, in series [10] (pH 7.4), the Kd is 11 µM.
Take albumin (from UniProt P02768): the dissociation constant (Kd) is 0.63 µM in [11] and greater than 100 µM in series [12].
On to albumin (from UniProt P02769), for which the dissociation constant (Kd) in series [13] was greater than 100 µM.
As to albumin (from UniProt P02770), the dissociation constant Kd in series [14] was greater than 40 µM; in series [15], 1.5 µM; in series [16] it was 5.4 µM; in series [17] it was 17 µM; in series [18] it was 10 µM; in series [19], greater than 100 µM. Moreover, the dissociation constant (Kd) in series [20] is 11 µM and 6 µM; in series [21] it was 11.6 µM; in [22], 1.1 µM.
In the case of albumin (from UniProt P07724), the dissociation constant (Kd) in series [23] is greater than 100 µM.
For albumin (from UniProt P08835), the dissociation constant Kd was greater than 50 µM in [24] and greater than 100 µM in series [25].
With albumin (from UniProt P14639), in series [26], the dissociation constant Kd is greater than 100 µM.
Regarding albumin (from UniProt P49065), the dissociation constant (Kd) in series [27] was 11.8 µM.
